Measurements as given in patent US20040202659A1 (ASAT AG APPLIED SCIENCE AND TECHNOLOGY, published 2004).

Key:
[1] = molecular target: T1, PDG-A; assay: specificity assay
T1 construct: lambda light chain; also called Group A phab clones; Group A autoantibody phab clones

[2] = molecular target: T2, PDG-B; assay: flow cytometry, biotinylated PDG-B on platelets with AI-B phab
T2 construct: human anti-GPIIb/IIIa Fab, as phab or as biotinylated recombinant Fab; lambda light chain; also called Group B phab clones; Group B antibody phab clones
Experimental: This was determined by means of flow-cytometric analysis. […] 10,000 events were counted in a FACScan appliance and the mean value of the fluorescence (±SD) was recorded.

[3] = molecular target: T2, PDG-B; assay: specificity assay

T1 sequence (VH, as listed by the source, chain 1 of 2): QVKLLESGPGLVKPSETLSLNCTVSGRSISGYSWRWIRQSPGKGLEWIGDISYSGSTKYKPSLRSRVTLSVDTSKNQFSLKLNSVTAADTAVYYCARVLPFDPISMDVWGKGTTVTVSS
T1 sequence (VL, as listed by the source, chain 2 of 2): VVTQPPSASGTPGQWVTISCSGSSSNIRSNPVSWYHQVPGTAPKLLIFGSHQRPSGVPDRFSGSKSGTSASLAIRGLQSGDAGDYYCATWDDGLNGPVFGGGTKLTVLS

binding result [1] | inhibition of the binding of PDG-B to platelets [2] | binding result [3] | Binder
no binding | > 60% |  | AI-B24 (Fab, V domains shown, phab; also called A1-B24) VH: QVKLLESGGGLVQPGGSLRLSCSASGFTFNKYAIHWVRQAPGKGLEYVSAISSNGGNTYYADSVKGRFTISRDNSKNTVYLQMSSLRAEDTAVYYCVRGSGSYLGYYFDYWGQGTLVTVSS VL: VVTQPPSVSVAPRQTATITCGGYKIGSKSVHWYQQKPGQAPVLVVYEDSYRPSEIPERFSGSNSGNMATLTITGVEAGDEADYYCQVWDNTNDQTIFGGGTKLTVLR
no binding |  | binds | AI-B14 (Fab, V domains shown, phab; also called A1-B14; AI-14) VH: QVKLLESGGGVVQPGRSLRLSCAASGFTFSDYGMHWVRQAPGKGLEWVAAISYDGSNKYYADSVKGRFSISRDNSNNTLYLQMSTLRAEDTAVYFCARDSETAIAAAGRFDIWGQGTMVTVSS

More lines, now with the values behind:

Binder | binding result [1] | inhibition of the binding of PDG-B to platelets [2] | binding result [3]
AI-B18 (Fab, V domains shown, phab; also called A1-B18) VH: QVKLLESGAEVKKPGSSVMVSCKASGGTFSSHTISWVRQAPGQGLEWMGGITPIFGTVNYAQKFQGRVTITADEPTSTAYMELRSLTSDDSGIYYCAREDGTTVPSQPLEFWGQGTRVTVSS | no binding | > 60% | 
AI-B40 (Fab, V domains shown, phab; also called A1-B40) VH: QVKLLESGAEVKKPGSSVMVSCKASGGTFSSHTISWVRQAPGQGLEWMGGITPIFGTVNYAQKFQGRVTITADEPTSTAYMELRSLTSDDSGIYYCAREDGTTVPSQPLEFWGQGTRVTVSS | no binding |  | 
AI-B34 (Fab, V domains shown, phab; also called A1-B34) VH: QVKLLESGAEVKKPGSSVMVSCKASGGTFSSHTISWVRQAPGQGLEWMGGITPIFGTVNYAQKFQGRVTITADEPTSTAYMELRSLTSDDSGIYYCAREDGTTVPSQPLEFWGQGTRVTVSS | no binding |  | 
AI-B38 (Fab, V domains shown, phab; also called A1-B38) VH: QVKLLESGAEVKKPGASVKVSCKVSGYTLTELSMHWVRQAPGKGLEWMGGFDPEDGETIYAQKFQGRVTMTEDTSTDTAYMELSSLRSEDTAVYYCETGLRSYNYGRNLDYWGQGTLVTVSS | no binding | > 60% | 
AI-B17 (Fab, V domains shown, phab; also called A1-B17) VH: QVKLLESGGGVVQPGRSLRLSCAASGFTFSDYGMHWVRQAPGKGLEWVAAISYDGSNKYYADSVKGRFSISRDNSNNTLYLQMSTLRAEDTAVYFCARDSETAIAAAGRFDIWGQGTMVTVSS | no binding |  | binds
